The target in test [1] is T1, biotinylated SARS-CoV-2 spike glycoprotein (SARS-CoV-2, UniProt P0DTC2 16-1213).
Test [2] deals with T2, SARS-CoV-2 spike glycoprotein (his-tagged SARS-CoV-2 RBD) (SARS-CoV-2, UniProt P0DTC2 319-541).
T2 construct: domain: RBD; also called COVID-19 RBD; wild-type spike glycoprotein
Kind of test: BLI (Octet), his-tagged SARS-CoV-2 RBD on anti-His biosensor. In general terms: In BLI a coated tip is dipped into the sample, and binding shifts an interference pattern.

The target in test [3] is T3, polymeric immunoglobulin receptor (pIgR), his-tagged (human, UniProt P01833 19-638). As to the kind of experiment: BLI (Octet): his-tagged pIgR on anti-His (HIS2) biosensors, protein in solution at 10 µg/mL, 90 s association, 90 s dissociation.
The target of test [4] is T1, biotinylated SARS-CoV-2 spike …. This is another data set of the same source.
For test [5], the target named is T3, polymeric immunoglobulin receptor …. Kind of test: BLI (Octet), his-tagged pIgR on anti-His biosensor.

As usually defined, the IC50 is the midpoint of a concentration-inhibition curve. As usually defined, the Kd is a measure of binding affinity in units of concentration. Lower therefore signals a tighter complex. In general, koff refers to the rate constant with which the complex falls apart.

Like-named read-outs stand apart in the source and are kept apart here.

T3 sequence (P01833 19-638 limits assumed): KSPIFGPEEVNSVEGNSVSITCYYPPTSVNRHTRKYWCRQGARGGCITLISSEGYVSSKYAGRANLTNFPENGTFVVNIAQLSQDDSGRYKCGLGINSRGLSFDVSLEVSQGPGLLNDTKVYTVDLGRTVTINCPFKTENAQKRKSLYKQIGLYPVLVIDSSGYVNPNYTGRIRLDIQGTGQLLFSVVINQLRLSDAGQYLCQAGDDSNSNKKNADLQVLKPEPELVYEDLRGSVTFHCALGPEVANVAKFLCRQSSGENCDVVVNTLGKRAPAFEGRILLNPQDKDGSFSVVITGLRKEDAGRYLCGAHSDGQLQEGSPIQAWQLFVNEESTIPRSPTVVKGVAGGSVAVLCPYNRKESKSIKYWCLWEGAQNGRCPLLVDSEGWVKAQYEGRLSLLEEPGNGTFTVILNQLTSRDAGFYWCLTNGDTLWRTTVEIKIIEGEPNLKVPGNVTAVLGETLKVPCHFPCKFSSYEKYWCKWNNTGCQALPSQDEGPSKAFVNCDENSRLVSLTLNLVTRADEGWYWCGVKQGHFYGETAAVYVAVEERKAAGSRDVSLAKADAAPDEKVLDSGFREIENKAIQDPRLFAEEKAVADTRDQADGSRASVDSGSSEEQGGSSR

B1: D001 (antibody, V domains shown)
VH: QVQLQQSGPELMKPGASVKISCKASGYSFTNYYIHWVKQSHGKSLEWIGYIDPFNGGTSDNLKFKGAATLTVDKSSSTAYMHLSSLTSEDSAVYYCARSEYDPYYVMDYWGQGTSVTVSS
VL: EIVLTQSPDTLSVTPGDSVSLSCRASQSISSNLHWYQQKSHESPRLLIKYASQSISGIPSRFSGSGSGTDFTLSINSVETEDFGIYFCQQTNFWPYTFGGGTKLEIKR
notes: also called Sino Biological cat. #40150-D001
In test [1], B1 displayed an IC50 of 0.299 nM. In test [2], binding was put at a Kd of 15 nM and the koff amounted to 1.1e-05 s⁻¹. Also, the binding result in test [3] is “no binding (tested: 10 µg/mL)”. In test [4], this molecule came in with an IC50 of 0.2 nM.

B2: SAD-S35 (antibody, human IgG1, kappa, V domains shown)
VH: QVQLVESGGGLVQPGGSLRLSCAASGITVSSNYMSWVRQAPGKGLEWVSVIYSGGSTYYADSVKGRFSISRDNSKNTLYLQMNSLRAEDTAVYYCARDLQERGGMDVWGQGTTVTVSS
VL: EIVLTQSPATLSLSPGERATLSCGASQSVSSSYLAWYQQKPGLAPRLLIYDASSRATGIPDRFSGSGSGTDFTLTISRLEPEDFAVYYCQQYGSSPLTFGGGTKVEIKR
notes: also called Acro Biosystems cat. #SAD-S35
In test [1], B2 displayed an IC50 of 0.323 nM. Besides, in test [2], the Kd amounted to 14.3 nM, the “Relative Kd (compared to CR3022)” value was 12 and the koff came out at 8.91e-06 s⁻¹.

B3: CR3022 (antibody)
heavy: not shown
light: […]
As for B3, the binding result in test [5] is given as “no binding (tested: 10 µg/mL)”.
